Assay results: patent publication US20240309051A1, “[…] T (TFH) CELLS […] TO SARS-COV-2 VIRUS” (priority 2021, published 2024)

Target: T1, SARS-COV-2 S protein, S867-881 peptide with residue 3 (Q) of SEQ ID NO: 13 replaced with alanine peptide on … (human)
T1 peptide: DEMIAAYTSALLAGT
Assay: activation reporter or marker

B1: Clone 1 (TCR-017) (TCR)
alpha TRAV12-1 TRAJ12 CDR3: CVVNRGSSYKLIF
beta TRBV11-2 TRBJ2-7 CDR3: CASSQTYEQYF
  binding result: no recognition
